How the values were obtained:
[1] = molecular target: Env of HIV-1 strain CNE30 (pseudovirus) (HIV-1)
[2] = molecular target: Env of HIV-1 strain 3873 (pseudovirus) (HIV-1)
[3] = molecular target: Env of HIV-1 strain QH209 (pseudovirus) (HIV-1)
[4] = molecular target: Env of HIV-1 strain CNE56 (pseudovirus) (HIV-1)
[5] = molecular target: Env of HIV-1 strain 398 (pseudovirus) (HIV-1)
[6] = molecular target: Env of HIV-1 strain 0439 (pseudovirus) (HIV-1)

With monoclonal antibody PG16 the neutralization IC50 [1] was greater than 50 µg/mL, the neutralization IC50 (DU422.01) was less than 0.023 µg/mL and the neutralization IC50 (ZM146.7) was 0.767 µg/mL. The neutralization IC50 (DU123.06) was less than 0.023 µg/mL, the neutralization IC50 (CH070.1) was 0.002 µg/mL and the neutralization IC50 (3637.V5.C3) was greater than 50 µg/mL. The neutralization IC50 (6785.V5.C14) was less than 0.023 µg/mL, the neutralization IC50 [2] was 12.2 µg/mL and the neutralization IC50 (SO18.18) was 0.023 µg/mL. The neutralization IC50 (CAP210.E8) was less than 0.023 µg/mL, the neutralization IC50 (DU156.12) was less than 0.023 µg/mL and the neutralization IC50 (ZM106.9) was 1.1 µg/mL. For the same substance, the neutralization IC50 (96ZM651.02) was greater than 50 µg/mL, the neutralization IC50 (CNE40) was 49 µg/mL and the neutralization IC50 (TZA125.17) was 0.024 µg/mL. It also gave a neutralization IC50 (CH181.12) of 0.002 µg/mL, a neutralization IC80 (3415.v1.c1 (HIV-1)) of 0.342 µg/mL and a neutralization IC80 (C1080.c3 (HIV-1)) of 0.004 µg/mL. It also gave a neutralization IC80 (Q769.d22 (HIV-1)) of 11 µg/mL, a neutralization IC80 (3589_V1_C4 (HIV-1)) of 37.8 µg/mL and a neutralization IC80 (TH976.17 (HIV-1)) greater than 50 µg/mL. For the same substance, the neutralization IC80 (RW020.2 (HIV-1)) was 3.51 µg/mL, the neutralization IC80 (CNE59 (HIV-1)) was greater than 50 µg/mL and the neutralization IC80 (3301_V1_C24 (HIV-1)) was 0.397 µg/mL. The neutralization IC80 (CNE3 (HIV-1)) was greater than 50 µg/mL, the neutralization IC80 (6540.v4.c1 (HIV-1)) was 0.154 µg/mL and the neutralization IC80 (M02138 (HIV-1)) was 0.81 µg/mL. For the same substance, the neutralization IC80 (Q259.17 (HIV-1)) was 0.717 µg/mL, the neutralization IC80 (C3347.c11 (HIV-1)) was 0.031 µg/mL and the neutralization IC80 (BS208.B1 (HIV-1)) was 0.012 µg/mL. It also gave a neutralization IC80 [3] greater than 50 µg/mL, a neutralization IC80 (3468_V1_C12 (HIV-1)) greater than 50 µg/mL and a neutralization IC80 (6095_V1_C10 (HIV-1)) of 0.443 µg/mL. For the same substance, the neutralization IC80 (R2184.c4 (HIV-1)) was greater than 50 µg/mL, the neutralization IC80 (C2101.c1 (HIV-1)) was 0.069 µg/mL and the neutralization IC80 (TH966.8 (HIV-1)) was 0.03 µg/mL. It also gave a neutralization IC80 [4] greater than 50 µg/mL, a neutralization IC80 (MS208.A1 (HIV-1)) of 31.8 µg/mL and a neutralization IC80 (BB201.B42 (HIV-1)) of 0.008 µg/mL. For the same substance, the neutralization IC80 (CNE55 (HIV-1)) was greater than 50 µg/mL, the neutralization IC80 (3718.v3.c11 (HIV-1)) was 0.102 µg/mL and the neutralization IC80 (MB201.A1 (HIV-1)) was 0.019 µg/mL. It also gave a neutralization IC80 [5] greater than 50 µg/mL, a neutralization IC80 (0815_V3_C3 (HIV-1)) greater than 50 µg/mL and a neutralization IC80 (KER2008.12 (HIV-1)) of 0.046 µg/mL. It also gave a neutralization IC80 (R3265.c6 (HIV-1)) of 0.691 µg/mL, a neutralization IC80 (MB539.2B7 (HIV-1)) of 0.205 µg/mL and a neutralization IC80 [6] greater than 50 µg/mL. For the same substance, the neutralization IC80 (C4118.09 (HIV-1)) was 0.24 µg/mL, the neutralization IC80 (Q461.e2 (HIV-1)) was greater than 50 µg/mL and the neutralization IC80 (Q842.d12 (HIV-1)) was 0.006 µg/mL. For the same substance, the neutralization IC80 (Q23.17 (HIV-1)) was 0.004 µg/mL, the neutralization IC80 (UG037.8 (HIV-1)) was 0.004 µg/mL and the neutralization IC80 (R1166.c1 (HIV-1)) was 12.5 µg/mL. For the same substance, the neutralization IC80 (620345.c1 (HIV-1)) was greater than 50 µg/mL, the neutralization IC80 (0260.v5.c36 (HIV-1)) was greater than 50 µg/mL and the neutralization IC80 (MI369.A5 (HIV-1)) was 0.082 µg/mL. For the same substance, the neutralization IC80 (KNH1209.18 (HIV-1)) was greater than 50 µg/mL, the neutralization IC80 (Q168.a2 (HIV-1)) was 0.106 µg/mL and the neutralization IC80 (KER2018.11 (HIV-1)) was 0.002 µg/mL. It also gave a neutralization IC80 (Q769.h5 (HIV-1)) of 0.02 µg/mL, a neutralization IC80 (BI369.9A (HIV-1)) of 0.037 µg/mL and a neutralization IC80 (0330.v4.c3 (HIV-1)) of 0.027 µg/mL. It also gave a neutralization IC80 (6545_V4_C1 (HIV-1)) of 0.562 µg/mL and a neutralization IC80 (CNE5 (HIV-1)) of less than 0.023 µg/mL.

From US20140348865A1, “[…] ON AN HIV-1 V1V2 SITE-OF-VULNERABILITY” (The United States of America, as represented by the …, priority 2011, published 2014)
